From a protein production outcome set (Wang et al. 2014) come the findings set out here.

The nature of the series: label from the status in PepcDB records.

Consider “MRMGVKDFAPSWFASVMGTGALALVSKSYSFKLPILEAFSKFLTYLNTIIFFVLLIPWLLRWIKYPSEAKKDLYHPVTSHFYGTMPIAMTIVAVNLAMFGYKEIALPLWILGSILVVIFAFLIPYLFFISEGVDVKTITPAWFIPPVGLIVIPLTSLPFVPSSVMWREVFIVLNYFGFGAGFFIYLALFAIVMRRFITHELLPPIMAPAVWINLGPLGAGAVALLNLAKIMPIAKSAFKAFAFILWGFGLWWLIMAILMTLHYLKNLHLPYSLAWWAFIFPLGAYVSATYNVGISIGITAMIEFGFALYWFLLALWLVTGIKTLVHDFSS”, for which the protein production result is listed as “failed”. For “MRMKPLKRSLPLLLALLLAACAGVKPPAAQPAQPETKPAAESGPDEAKLPKVALSPEILYGVLAGEIAARRGAAGSAGLTYLDLARETRDPRMAQRAAEFCLLSGQLKPATEALQLWIELDPESLPAREQLFITLMRGGKLAESKPLIEELLRLEPQRAPAIFVQLARLSARQDGGSAPSYRLVQELADRYPDLPEARFAVLAAAADNNDQAAVDRELNRLAGIAPKWDLPVAWQVDRLRRKDINEAADFLQRELARRPDAGLELQIAYPRLLVGAKRFPEARSAFEALLKTHPDNPDLLYATGLLAYQMRDLKTADDRLQRALARQYPEQDFVRYTLGQIAEDDRDAERAGNWYRQVGPGQQYLPAQSRLAMLEAADGRLDEALSRLSGLGGTDQEKVSLALLQSQLAREAKQPRRAYDLLTQALQRQPRSSELLYERSLVSDMLGNAGNAERDLRLILKDKPGDAQALNALGYTLANRTSRYQEAYGYIEKALKAEPDNPVIQDSMGWVQYKLGRLDAARKALEKAYAAMQDPEVGAHLGEVLWKQGRRDEALAVWRKELAQHPGHEVIAETMRRLGAKP” the value was “failed”; for “MRNDRSFIELRARERAHALLDDGSYRELLDPFEGIMSPWLGAQGIVPQSDDGMVVAKGTINGQPAVVIAIEGTFQGGSMGEVSGAKMAAALELAAEDNRNGIPTQAVLCLETGGVRLQEANLGLAAIADIHAAIVDLRRYTPVVGIITGTVGCFGGMSIAAALCSYLIVTREARLGLNGPQVIEQEAGIEEYDSRNRPFIWSMTGGEIRAASGLVDALVNDGVNAVKTAMIEAIAKGVPAQHRSDNYDDYLRRLSQFDTRQQADTAQIKQLFAREDK”, “not failed”; for “MRNIAVILAGGSGQRLGENIPKQFLKIAGKKVIEHTITVFQNHSLIDEIVVVVHPDYIRDVEDISLRNSFNKLKKILLGGKERYHSSLAAINAYDEEVNLLFHDSVRPLVNERIINDCIRALLTYNAVDVAIPTTDTIIQVDDNNEIVKIPSRILLRNGQTPQAFKRSVIKAAYEKALLDPLFKTTDDCGVVLKYLPDESIYVVNGEQFNMKLTYKEDIFLLDKLFQLRSIRNQPTLLEKSEMEELQGKVVVVFGGTYGIGQDICEICREYKTSLYVYSRSTGVDVSNSQSVRRVLSEIFDKEGRIDWIVNTAGILDKQPLANMSYEAVHQSIDVNYLGNIIVAKESFFYLKESKGSLLFFTSSSYTRGRALYSLYSSSKAAIVNFVQALSEEWFEYGIRVNCINPERTKTPMRIQNFGNEPEDTLLEPKVVAIVSVNTLLSEMTGEVVDVKRLEHHHHHH”, “failed”. As for “MRNLRKDIVSRSSVGSIQIHGAKTHNLRDVTVCIPKHALVGVAGVSGSGKTSLVSTLAVGAQQAVSSLFPAFVQARLNTLEPGLVDGLQGLTFTAIVGQKKFSRNARSSVSTASGIAPYLRLLFSRSGSPSAGYSPSYSPNDPRGMCMDCSGLGYVDDIDLQELIAPDRSLNEGAVRFPSFEPGTYRWKRLVCSGLFDPDVPWKELPEASRKLLLHGQGVRLERPLTGYPKHGIFDGIIPRLKASYLEKANAKTTEKEDAALRRIVKRVVCPHCHGQRINEAARASRIEGLNIAEASHLSIDECIAFIKTITDEITEAPRQAVLARLNNMRDIGLGYLSLDRPTDTLSGGEAQRLRLVSLLDAPITDATFVMDEPSSGLHPADIERLLRSLRKLRDSGNTVIIVEHNLQVLAACDHVVELGPGAGDDGGRVLFEGSPRSLTRSDTPTGKALRAGIQLNRRSRPATDVIEVTHARCNNLGDVSVSFPVGALTVVSGVAGSGKSSLASALAQQHPEVTIIDQLPLAASSRSSILTALGLESPIREAFSKISGLTTSWFSANEKGACPLCKGRGTTHVDMAFMDDVQTPCERCGGRKFNETTMAVRLPMGSLNPTIADVLDSGLNQVSELYATQDDVLTVISLLQQVGLGYLTLGRTLNTLSGGELQRIKLVQFLKEHREEQESVLVLDEITTGLHPKDVEQLIQFLRRLSERGATAIAIDHNPGLISQADYNIDLGPGAEAAGGTVVFSGTAQGLADCPESTTGKWLHKLNCSSSGVEQVP”, the protein production entry is recorded as “failed”.
